Assay [1] has as its target T1, hVISTA-COMP-his (Homo sapiens, UniProt Q9H7M9). As to the kind of experiment: SPR. On the technique in general: Surface plasmon resonance follows binding to a sensor surface in real time, without labels.
Target sequence in this assay (Q9H7M9 whole entry, looked up, tested part not stated): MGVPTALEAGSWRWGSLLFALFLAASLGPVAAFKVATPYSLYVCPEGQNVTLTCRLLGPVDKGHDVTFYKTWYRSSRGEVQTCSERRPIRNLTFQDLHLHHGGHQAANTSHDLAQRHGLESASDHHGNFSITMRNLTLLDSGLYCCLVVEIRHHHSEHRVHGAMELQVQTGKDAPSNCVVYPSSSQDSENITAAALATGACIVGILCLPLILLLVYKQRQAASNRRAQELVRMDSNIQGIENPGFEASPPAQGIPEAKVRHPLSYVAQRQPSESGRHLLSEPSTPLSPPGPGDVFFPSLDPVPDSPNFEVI
A further assay concerns the target mVISTA-COMP-his (Mus musculus, UniProt Q9D659). As to the kind of experiment: SPR.
The target in another assay is hVISTA-Fc (Homo sapiens (Human)., UniProt Q9H7M9). In words: SPR.
The target of assay [2] is T1, hVISTA-COMP-his.
Target sequence in this assay (Q9H7M9 33-168): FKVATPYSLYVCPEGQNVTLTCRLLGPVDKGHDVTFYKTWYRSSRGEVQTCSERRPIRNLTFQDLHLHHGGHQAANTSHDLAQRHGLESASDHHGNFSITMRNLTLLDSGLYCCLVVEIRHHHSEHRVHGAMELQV

Sequence of mVISTA-COMP-his (Q9D659 whole entry, looked up, tested part not stated): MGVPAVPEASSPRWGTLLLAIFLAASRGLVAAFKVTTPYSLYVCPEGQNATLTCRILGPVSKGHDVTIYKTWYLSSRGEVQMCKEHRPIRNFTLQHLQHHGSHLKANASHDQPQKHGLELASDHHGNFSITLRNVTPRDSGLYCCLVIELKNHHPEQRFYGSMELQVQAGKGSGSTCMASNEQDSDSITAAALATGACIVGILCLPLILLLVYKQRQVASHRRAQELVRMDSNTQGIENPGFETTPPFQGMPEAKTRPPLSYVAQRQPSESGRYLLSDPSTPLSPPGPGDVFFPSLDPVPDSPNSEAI
Sequence of hVISTA-Fc (Q9H7M9 33-194): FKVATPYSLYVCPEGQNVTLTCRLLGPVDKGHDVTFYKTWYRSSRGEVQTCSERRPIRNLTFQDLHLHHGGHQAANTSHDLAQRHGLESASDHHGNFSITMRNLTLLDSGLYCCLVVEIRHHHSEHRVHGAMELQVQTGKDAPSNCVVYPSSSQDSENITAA

B1: rat anti-hmVISTA mAb 7C7 (antibody, V domains shown)
VH: EVQLVESGGGLVQPGRSLKLSCVASGFTFNKYWMSWTRQAPGKGLEWVASITNSGGNTYYPDSVKGRFTISRDNAQNTLYLQMNSLRSEDTATYYCTLGVDYWGQGAMVTVSS
VL: DVVMTQTPPSLSVTIGQSVSISCKSSQSLVYSDGKTYLHWLLQSSGRSPKRLIYQVSNLASGVPDRFSGTGSQKDFTLKISRVEAKDLGVYYCAQTTHFPYTFGAGTKLEMK
Regarding B1, the values for the Kd in the assay with hVISTA-COMP-his [1] and with mVISTA-COMP-his were 49 nM and 51 nM, respectively.

B2: murine anti-hVISTA mAb 7G5 (antibody, V domains shown)
VH: QIQLVQSGPELKKPGETVKISCKASGYTFTNYGMNWVKQAPEKGLKWMGWINTYTGEPTYADDFKGRFAFSLETSASTAYLQINNLKNEDTATYFCARRSNPWPNDYWGQGTSLTVSS
VL: DIQMTQSPSSFSASLGERVSLTCRASQEISGYLSWLQQKPDGTIKRLIYAASTLDSGVPKRFSGSRSGSDYSLTISSLESEDFADYYCLQYASYPWTFGGGTKLEIK
In turn, B2 gave a Kd with hVISTA-COMP-his [1] of 0.14 nM. For the same molecule, the binding result with mVISTA-COMP-his is on record as “no binding”.

B3: anti-hVISTA nanobody hVISTANb7 (VHH)
VHH: QVQLQESGGGLVYPGGSLRLSCTASGFAFTNAYMNWVRQAPGKGAEWVSGITRDSNRTSYADSVKGRFTISRDNAKNTLYLQMDSLKSDDTALYYCNAEPSGWWLDDDYWGQGTQVTVSS
Take B3: binding with hVISTA-Fc was put at a Kd of 7.5 nM.

B4: murine anti-hVISTA mAb 7E12 (antibody, V domains shown)
VH: DVHLQESGPGLVKPSQSLSLTCSVTGYSITSGYYWNWIRQFPGNKLEWMGYISYDGNNNYNPSLKNRISITRDTSKNQFFLKLNSVTTEDTATYYCARGDYGSEAMDYWGQGTSVTVSS
VL: DIRVTQSPASLAVSLGQRATISCRASKSVSTSGYSYMNWYQQKPGQPPQLLIYLASNLESGVPARFSGSGSGTDFTLNIHPVEEEDAAIYYCQHSRELPWTFGGGTKLEIK
On to B4, for which, in the assay with hVISTA-COMP-his [1], the Kd was 0.44 nM. Further, the binding result with mVISTA-COMP-his is recorded as “no binding”.

B5: Nb3 [hVISTANb3] (VHH)
VHH: QVQLQESGGGLVHPGGSLRLSCAASGSVGTIFSMGWFRQAPGVQREMVATITNSGETNYAAFVKGRFTITRDNAQNTVYLQMNSLKPEDTAAYYCNAFDYVGGRTYELPYWGQGTQVTVSS
Turning to B5, the binding result with hVISTA-COMP-his [2] is “binds”.

B6: Nb6 [hVISTANb6] (VHH)
VHH: QVQLQESGGGLVHPGGSLRLSCAASGSGVTIFSMGWFRQAPGVQREMVATITNSGETNYAAFVKGRFTISRDNAQNAVYLQMNSLKPEDTAAYYCNAFDYVGGRTYELPYWGQGTQVTVSS
In the case of B6, the binding result in the assay with hVISTA-COMP-his [2] is given as “binds”.

B7: anti-hVISTA nanobody hVISTANb1 (VHH)
VHH: QVQLQESGGGLVQPGGSLRLSCAASGSVGTIFSMGWFRQAPGVQREMVATITNSGETNYAAFVKGRFTISRDNAENTVYLQMNSLKPEDTAAYYCNAFDYVGGRTYELPYWGQGTQVTVSS
In the case of B7, in the assay with hVISTA-Fc, the equilibrium dissociation constant (Kd) is 11 nM.

B8: Nb2 [hVISTANb2] (VHH)
VHH: QVQLQESGGGLVHPGGSLRLSCAASGSVGTIFSMGWFRQAPGVQREMVATITNSGETNYAAFVKGRFTISRDNAENTMYLEMNDLKPEDTAAYYCNAFDYVGGRTYELPYWGQGTQVTVSS
Take B8: the binding result in the assay with hVISTA-COMP-his [2] is recorded as “binds”.

The term Kd denotes the free concentration of one partner at which half of the binding sites on the other are occupied at equilibrium, for simple one-to-one binding.

For the origin of these results see PMC8632329 (mAbs, 2021).
